Laboratory results reported in patent publication US8114627.

Columns and labels:
[1] = target: [Leu1, Thr2]-63-desulfo-hirudin (Lepirudin (Refludan)) (UniProt P01050)
[2] = target: sulfo-hirudin ([Leu1, Thr2]-hirudin with sulfotyrosine at position 63, expressed in E. coli) (UniProt P01050)

human α-thrombin (Diapharma)
cleavage of the fluorogenic substrate by thrombin (fluorescence intensity over time) [1]: Cleavage of the fluorogenic substrate by thrombin, whose activity is inhibited to different degrees by sulfo-hirudin and desulfo-hirudin
cleavage of the fluorogenic substrate by thrombin (fluorescence intensity over time) [2]: Cleavage of the fluorogenic substrate by thrombin, whose activity is inhibited to different degrees by sulfo-hirudin and desulfo-hirudin
